{
  "source": "patent US20200231671A1",
  "about": "(E R SQUIBB AND SONS L L C, published 2020)",
  "key": {"[1]": {"biological_target": "T1, LAG-3 extra loop scan peptide APSSWGPRPRRY (human, also: conjugated to biotin, site not given here)", "T1 construct": "12-mer overlapping scan peptide of the extra loop", "T1 peptide": "APSSWGPRPRRY", "assay": "peptide scan ELISA", "protocol": "(§1) In the LAG-3 protein, the immunoglobulin-like first domain of the extracellular region contains an exposed “extra loop” having the amino acid sequence: […] (SEQ ID NO: 79). To examine the binding of 25E3, 25F7, 8B7 and 26H10 to this region of LAG-3, and map the epitope bound by each antibody, a peptide scan experiment was performed across this region. A series of 10 overlapping peptides that scanned across the full length of the extra loop sequence were prepared and conjugated to biotin. For ELISA analysis, microtiter plates pre-coated with streptavidin (Sigma-Aldrich, Cat # M5432) were used to capture the biotinylated loop peptide-conjugates applied in a 100 μl volume at a concentration of 2 μg/mL and incubated 18 hours at 4° C., after which the plates were washed 3 times and blocked at room temperature for 1 hour with blocking buffer (1×PBS+10% FBS). Next, human anti-LAG-3 antibodies serially diluted 3-fold in blocking buffer from 10 μg/mL were applied and the plates were incubated at room temperature for 2 hours and then washed three times. To detect bound human antibody a HRP-conjugated goat anti-human kappa light chain antibody (Bethyl Laboratories, Cat # A80-115P) was diluted to 1 μg/mL in blocking buffer and applied to assay wells for 1 hour followed by three washes and application of TMB substrate (eBioscience, Cat #00-4201-56). Optical density readings at 650 nm wavelength were made on a Spectramax 340PC spectrophotometer ([…].)."}, "[2]": {"biological_target": "T2, LAG-3 extra loop scan peptide LAPGPHPAAPSS (human, also: conjugated to biotin, site not given here)", "T2 construct": "12-mer overlapping scan peptide of the extra loop", "T2 peptide": "LAPGPHPAAPSS", "assay": "peptide scan ELISA", "protocol": "as §1"}},
  "note": "Where no end group is shown, it is not given here.",
  "data": [
    {"binder": "26H10 human monoclonal antibody (antibody, IgG1, V domains shown, also called 26H10-FITC) VH: QVQLVESGGGVVQPGRSLRLSCAASGFTFSSYGMHWVRQAPGKGLEWVAVIWYDGSNKYYADSVKGRFTISRDNSKNTLYLQMNSLRAEDTAVYYCAREWAVASWDYGMDVWGQGTTVTVSS VL: not shown", "values": [
      {"measurement": "binding result", "setting": "[1]", "result": "no binding (tested: 10 µg/mL)"},
      {"measurement": "binding result", "setting": "[2]", "result": "no binding (tested: 10 µg/mL)"}
    ]}
  ]
}
